# Measurements from PMC10960022, “An ARF gene mutation creates flint kernel architecture in dent maize”.
# T1: ARFTF17 (Zea mays (B73?)) (UniProt D9HNU4)
# T1 sequence: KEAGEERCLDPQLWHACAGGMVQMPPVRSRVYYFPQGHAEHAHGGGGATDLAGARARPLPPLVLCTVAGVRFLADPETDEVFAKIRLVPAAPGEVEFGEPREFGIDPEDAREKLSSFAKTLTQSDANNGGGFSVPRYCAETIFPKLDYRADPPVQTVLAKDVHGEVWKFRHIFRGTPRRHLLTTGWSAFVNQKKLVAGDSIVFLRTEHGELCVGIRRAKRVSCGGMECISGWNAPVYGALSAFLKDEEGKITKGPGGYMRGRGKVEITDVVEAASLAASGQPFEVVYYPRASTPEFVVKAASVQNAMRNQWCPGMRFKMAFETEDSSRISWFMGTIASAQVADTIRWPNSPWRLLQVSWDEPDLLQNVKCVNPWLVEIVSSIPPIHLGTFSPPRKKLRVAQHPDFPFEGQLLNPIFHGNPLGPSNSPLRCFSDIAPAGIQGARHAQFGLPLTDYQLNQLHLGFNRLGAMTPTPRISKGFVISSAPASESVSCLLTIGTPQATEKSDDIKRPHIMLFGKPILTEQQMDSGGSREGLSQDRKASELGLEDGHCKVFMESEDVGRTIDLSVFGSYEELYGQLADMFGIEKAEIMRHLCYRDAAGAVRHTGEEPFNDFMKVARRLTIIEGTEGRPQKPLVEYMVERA
# T2: ARFTF17 (Zea mays, UniProt D9HNU4 2-644)
# T2 sequence: T1 sequence
# B1: P3(2x) (dsDNA)
# DNA 1: AAGGGAGACAACTTGTCTCCCAAAGGGAGACAACTTGTCTCCCAAAGGGAGACAACTTGTCTCCCA
# DNA 2: TGGGAGACAAGTTGTCTCCCTTTGGGAGACAAGTTGTCTCCCTTTGGGAGACAAGTTGTCTCCCTT
# Assays:
# [1] = target: T1, ARFTF17 (Zea mays (B73?)); experiment: EMSA; conditions: 20 mM Tris-HCl pH 7.9, 40 mM KCl, 2 mM MgCl2, 0.2 mM DTT, 5% glycerol, 0.04 mg/mL BSA, 1 ug salmon sperm DNA in 20 uL, room temperature 30 min; 0.05 pmol …
# [2] = target: T2, ARFTF17; experiment: EMSA; 20 mM Tris-HCl pH 7.9, 40 mM KCl, 2 mM MgCl2, 0.2 mM DTT, 5% glycerol, 0.04 mg/mL BSA, 1 ug salmon sperm DNA in 20 uL, room temperature 30 min; 0.05 pmol probe, 100 ng protein; native 4% PAGE at 4 C; conditions: protein: recombinant; tags: His (pET30a); chain copies: 2; blunt
Molecule,binding [1],binding result [2]
AATGCACAATCAAATAAATACTCAACATGATGCATATTTCTATTTATATATTTTTATAGTAATTGTTTAATCCTTTTGGTTAAATAACATGCTTCGAAATATGCCATACAACAATTTTCAGTTTTGAAGAAAT (double strand) [PIN1-P],no binding,–
B1,–,no binding
